Experimental data taken from paper PMC6667744 (Pharmacology Research & Perspectives, 2019).

Biological target: Nanoluc‐RXFP2 (UniProt Q8WXD0 1-754)
Assay: FRET or BRET

Sequence of Nanoluc‐RXFP2 (Q8WXD0 whole entry): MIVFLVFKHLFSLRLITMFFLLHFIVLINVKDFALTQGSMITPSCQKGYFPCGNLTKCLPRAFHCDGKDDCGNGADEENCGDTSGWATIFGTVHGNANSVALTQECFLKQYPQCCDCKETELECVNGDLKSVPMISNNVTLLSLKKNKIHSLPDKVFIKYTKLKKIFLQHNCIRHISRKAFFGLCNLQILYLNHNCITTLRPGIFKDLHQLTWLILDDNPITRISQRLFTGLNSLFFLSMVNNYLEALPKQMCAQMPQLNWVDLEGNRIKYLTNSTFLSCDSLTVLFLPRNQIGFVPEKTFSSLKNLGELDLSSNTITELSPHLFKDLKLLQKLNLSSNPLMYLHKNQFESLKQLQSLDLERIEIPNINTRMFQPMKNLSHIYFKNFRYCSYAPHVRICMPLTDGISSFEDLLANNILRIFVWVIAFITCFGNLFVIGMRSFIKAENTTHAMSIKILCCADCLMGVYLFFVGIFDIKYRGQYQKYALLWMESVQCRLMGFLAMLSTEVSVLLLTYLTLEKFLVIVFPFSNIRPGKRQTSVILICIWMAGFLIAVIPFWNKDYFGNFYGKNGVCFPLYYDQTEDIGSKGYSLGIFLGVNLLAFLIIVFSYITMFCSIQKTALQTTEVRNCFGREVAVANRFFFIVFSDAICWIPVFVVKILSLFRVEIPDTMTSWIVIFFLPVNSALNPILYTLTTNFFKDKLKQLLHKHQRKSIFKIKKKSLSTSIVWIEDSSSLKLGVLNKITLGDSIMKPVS

BRET signal relative to that of Nanoluc-RXFP1 with mCitrine-RXFP1: ~75%
B1: mCitrine‐RXFP1 (receptor)
chain: QDVKCSLGYFPCGNITKCLPQLLHCNGVDDCGNQADEDNCGDNNGWSLQFDKYFASYYKMTSQYPFEAETPECLVGSVPVQCLCQGLELDCDETNLRAVPSVSSNVTAMSLQWNLIRKLPPDCFKNYHDLQKLYLQNNKITSISIYAFRGLNSLTKLYLSHNRITFLKPGVFEDLHRLEWLIIEDNHLSRISPPTFYGLNSLILLVLMNNVLTRLPDKPLCQHMPRLHWLDLEGNHIHNLRNLTFISCSNLTVLVMRKNKINHLNENTFAPLQKLDELDLGSNKIENLPPLIFKDLKELSQLNLSYNPIQKIQANQFDYLVKLKSLSLEGIEISNIQQRMFRPLMNLSHIYFKKFQYCGYAPHVRSCKPNTDGISSLENLLASIIQRVFVWVVSAVTCFGNIFVICMRPYIRSENKLYAMSIISLCCADCLMGIYLFVIGGFDLKFRGEYNKHAQLWMESTHCQLVGSLAILSTEVSVLLLTFLTLEKYICIVYPFRCVRPGKCRTITVLILIWITGFIVAFIPLSNKEFFKNYYGTNGVCFPLHSEDTESIGAQIYSVAIFLGINLAAFIIIVFSYGSMFYSVHQSAITATEIRNQVKKEMILAKRFFFIVFTDALCWIPIFVVKFLSLLQVEIPGTITSWVVIFILPINSALNPILYTLTTRPFKEMIHRFWYNYRQRKSMDSKGQKTYAPSFIWVEMWPLQEMPPELMKPDLFTYPCEMSLISQSTRLNSYS
